Measurements from patent US20070065890A1, “Method for promoting formation of facultative heterochromatin” (priority 2005, published 2007).

Target: endogenous histone H1
Test: cell-based or functional assay

In the case of “deletion mutant G4-ΔNSirT1 (Δ(1-268)) (from UniProt P04386 1-147)”, the derepression of the Gal4 pTK-Luc reporter (compare G4-SirT1 with G4-ΔN-SirT1) is reported as 20%.
